Experimental data: patent CN114716553A (BEIJING KENUO XINCHENG TECH CO LTD, dated 2022)
Substitutions are numbered along the chain they refer to.

B1: 对照抗体193 (antibody, IgG1, V domains shown)
VH: EVQLVESGGGLVQPGGSLRLSCAASGFSLSSSYWISWVRQAPGKGLEWIGSIDSGSVGITYYATWVKGRFTISRDNSKNTLYLQMNSLRAEDTAVYYCARHGDNWALDLWGQGTLVTVSS
VL: DIQMTQSPSTLSASVGDRVTITCRASQSINSWLAWYQQKPGKAPKLLIYKASTLASGVPSRFSGSGSGTEFTLTISSLQPDDAATYYCQHGYIRGDLDNVFGGGTKVEIK
notes: Variable regions cloned into vectors with human kappa / IgG1 constant regions and expressed in HEK293; also called 同靶点对照抗体193
B2: hzD2-1 (Fc fusion)
chain: EVQLVESGGGLVQPGGSLRLSCAASGFTVSSDYMGWFRQAPGKEREGVACINTNGGETYHANSVSGRFTISRDNSKNTLYLQMNSLRAEDTAVYYCARGRTNPDSYGGSRCLLAPEYTYWGQGTLVTVSS
notes: Humanised VHH of D2 fused to human Fc, expressed in HEK293; also called D2人源化分子hzD2-1; hzD2-1人源化抗体; not shown: human Fc (hFc) from the expression vector
B3: hzD2-2 (Fc fusion)
chain: B2 chain with F27Y, V29A
notes: Humanised VHH of D2 fused to human Fc, expressed in HEK293; also called D2人源化分子hzD2-2; hzD2-2人源化抗体; not shown: human Fc (hFc) from the expression vector
B4: B2 (VHH)
VHH: QVQLQESGGGPVQAGGSLRLSCAASEYSYRRHCMAWFRQAPGKEREGVATIYTGGGITRYADSVKGRFTISQDNAKNTVYLQMNSLKPEDTAMYYCAADIASRACVTDPFPLERARFSAWGQGTQVTVSS
notes: also called 噬菌体展示的纳米抗体B2
B5: F1 (VHH)
VHH: B4 VHH with P11L
notes: also called 噬菌体展示的纳米抗体F1
B6: C3 (VHH)
VHH: QVQLQESGGGLVQAGGSLRLSCVASEYIYTRCNMAWYRQAPGKERELVSAFDIGDTLYYADSVKGRFTISQDNAKNTVYLQMNSLKPEDTAMYYCNTVGVKPGGGSWCFNPDYWGQGTQVTVSS
notes: also called 噬菌体展示的纳米抗体C3

Experiments:
[1] = biological target: T1, 人LILRB4 (on LILRB4-positive cells) (human, UniProt Q8NHJ6 22-448); experiment: cell-based or functional assay
[2] = biological target: T1, 人LILRB4 (on LILRB4-positive cells); experiment: flow cytometry on THP-1 cells
[3] = biological target: T2, 人LILRB4重组蛋白(购于义翘，Cat.16742-H08H) (human, UniProt Q8NHJ6 22-259); experiment: BLI (Octet QKe), antibody captured on AHC probe, antigen 100 nM, 1:1 Langmuir fit
T2 construct: Bought protein; also called human LILRB4 recombinant protein

[4] = biological target: T1, 人LILRB4 (on LILRB4-positive cells); experiment: flow cytometry on RPMI-8226 cells
[5] = biological target: T3, 人LILRB4的重组蛋白 (phage library screening antigen) (human, UniProt Q8NHJ6 22-259, limits assumed); experiment: solid phase screening of phage library
T3 construct: May be the same protein as the immunogen or as m14

Binder	EC50 of T cell activation (LILRB4 Effector Reporter cells with APOE/TCR Activator/CHO cells, luciferase) [1]	EC50 [2]	Kd [3]	koff [3]	kon [3]	EC50 [4]	binding result [5]
B1	0.094 nM	1.43 nM	0.721 nM	0.00022 s⁻¹	305000 M⁻¹ s⁻¹	0.227 nM	–
B2	–	–	1.03 nM	0.000172 s⁻¹	167000 M⁻¹ s⁻¹	0.221 nM	–
B3	–	–	0.948 nM	0.000175 s⁻¹	185000 M⁻¹ s⁻¹	0.215 nM	–
B4	–	–	–	–	–	–	binds
B5	–	–	–	–	–	–	binds
B6	–	–	–	–	–	–	binds
